Data from paper PMC4533228.

Molecular target: homotypic K48-polyUb cyB1-NT^K64 (GST-bound single-lysine N-terminal fragment of cyclin B1 ubiquitinated with Ub^K48) (UniProt P0CG48)
Test: pull-down; resin-bound polyUb conjugates (≈20 nM) incubated with purified 26S proteasomes (10 nM) at 4°C, washed; bound proteasomes measured by cleavage of suc-LLVY-AMC at 37°C (one panel also with 300 nM hHR23A)

Chain of homotypic K48-polyUb cyB1-NT^K64 (GST-bound single-lysine N-terminal fragment of cyclin B1 ubiquitinated with Ub^K48) (P0CG48 whole entry, looked up, the tested form may be a part): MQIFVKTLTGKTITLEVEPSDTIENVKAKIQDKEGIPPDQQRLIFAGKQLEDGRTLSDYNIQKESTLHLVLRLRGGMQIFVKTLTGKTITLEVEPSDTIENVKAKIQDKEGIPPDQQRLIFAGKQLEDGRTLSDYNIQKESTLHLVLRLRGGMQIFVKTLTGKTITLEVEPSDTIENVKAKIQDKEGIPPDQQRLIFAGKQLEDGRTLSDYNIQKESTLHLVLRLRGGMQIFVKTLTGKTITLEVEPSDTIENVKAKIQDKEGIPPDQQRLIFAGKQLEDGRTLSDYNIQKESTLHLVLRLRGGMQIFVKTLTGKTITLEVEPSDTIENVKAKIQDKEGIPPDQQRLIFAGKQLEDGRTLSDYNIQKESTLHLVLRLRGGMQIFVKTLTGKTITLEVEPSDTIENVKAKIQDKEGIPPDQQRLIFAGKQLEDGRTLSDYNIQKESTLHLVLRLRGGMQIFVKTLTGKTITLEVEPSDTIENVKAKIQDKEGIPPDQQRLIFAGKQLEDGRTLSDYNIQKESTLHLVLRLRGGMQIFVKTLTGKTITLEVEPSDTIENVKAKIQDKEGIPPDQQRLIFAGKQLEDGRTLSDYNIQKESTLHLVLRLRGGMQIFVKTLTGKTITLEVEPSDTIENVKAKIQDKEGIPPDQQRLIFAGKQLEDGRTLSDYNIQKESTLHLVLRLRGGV

fold binding relative to K11 chains (K11-polyUb cyB1-NT^K64): 4.5 fold
Substance: 26S proteasome purified from rabbit muscle (complex)
